Results reported in the supplement of paper PMC7125110.
± gives the standard error. This sample holds only a part of the variants without activity.

B1: glmS ribozyme (parent)
chain: AUAAAAGCGCCAGAACUACAGAAAUGUAGUUGACGAGGAGGAGGUUUAUCGAAUUUUCGGCGGAUGCCUCCAAA

How the values were obtained:
Conditions in all cases: with glucosamine-6-phosphate
glucosamine-6-phosphate [1] = variants of: B1; test: self-cleavage kobs at 40 uM GlcN6P; higher = faster cleavage; RNA array
Method in brief: (§1)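 On sequenced MiSeq chips, barcoded ribozyme variants were made in situ by E. coli RNA polymerase and followed at 37 °C through a hybridised Cy3 probe. Glucosamine-6-phosphate was flowed in at 40 μM to 10 mM in HEPES/KCl/Mg(OAc)2 buffer. Exponential fits to normalised per-tile medians gave kobs, and weighted Michaelis–Menten fits gave kcat and KM.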

glucosamine-6-phosphate [2] = variants of: B1; test: self-cleavage kobs at 640 uM GlcN6P; higher = faster cleavage; RNA array
Method in brief: as §1

glucosamine-6-phosphate [3] = variants of: B1; test: self-cleavage kobs at 160 uM GlcN6P; higher = faster cleavage; RNA array
Method in brief: as §1

glucosamine-6-phosphate [4] = variants of: B1; test: self-cleavage kobs at 2500 uM GlcN6P; higher = faster cleavage; RNA array
Method in brief: as §1

glucosamine-6-phosphate [5] = variants of: B1; test: self-cleavage kobs at 10000 uM GlcN6P; higher = faster cleavage; RNA array
Method in brief: as §1

Variant	self-cleavage kobs at 40 uM GlcN6P (glucosamine-6-phosphate [1]) [s⁻¹]	self-cleavage kobs at 640 uM GlcN6P (glucosamine-6-phosphate [2]) [s⁻¹]	self-cleavage kobs at 160 uM GlcN6P (glucosamine-6-phosphate [3]) [s⁻¹]	self-cleavage kobs at 2500 uM GlcN6P (glucosamine-6-phosphate [4]) [s⁻¹]	self-cleavage kobs at 10000 uM GlcN6P (glucosamine-6-phosphate [5]) [s⁻¹]
G60A A64C	< 1e-05	< 1e-05			
U47A A53C	0.000173 ± 2.9e-05	0.00103 ± 0.00018	0.000506 ± 7.8e-05	0.00465 ± 0.001	0.00663 ± 0.0016
C8A C11U	< 1e-05	< 1e-05		< 1e-05	< 1e-05
G40C C68U	< 1e-05				1.72e-05 ± 7.9e-06
C34A G62A	< 1e-05	< 1e-05	< 1e-05	< 1e-05	< 1e-05
G29U G44A	< 1e-05		< 1e-05		3.45e-05 ± 9.6e-06
G44A C70A	< 1e-05		< 1e-05	< 1e-05	< 1e-05
A14C U31G U47G	0.00012 ± 1.8e-05				0.00313 ± 0.00068
G7U A12U A52G U55G	< 1e-05				< 1e-05
U45A A48C C58U	< 1e-05				< 1e-05
G38U G43C U47C A53U U55A G59C	< 1e-05				
G29A U49A	< 1e-05	< 1e-05	< 1e-05		
G32U A64G C71U	< 1e-05			0.000459 ± 0.00016	0.000175 ± 3.6e-05
A14C G60U	< 1e-05	< 1e-05	< 1e-05		< 1e-05
G41U A64U	< 1e-05	< 1e-05			
G13C G35C	< 1e-05		< 1e-05	< 1e-05	< 1e-05
G32A U55G	4.93e-05 ± 1.7e-05	0.000327 ± 5.7e-05		0.000627 ± 0.00014	0.00326 ± 0.00054
G7A G13A	< 1e-05	< 1e-05	< 1e-05		< 1e-05
A48U G60A	< 1e-05	< 1e-05	< 1e-05	< 1e-05	< 1e-05
C10A U47C U54C G66U	< 1e-05				< 1e-05
G41U G63C C70A	< 1e-05				
